*1 amine or outer side, *2 acyl side, *3 side chain or, on linkers, in order; H or OH if unused. Bridges are numbered along the chain shown (N, C = ends). Where no end group is shown, it is not given here. [ ]: non-standard residue; d: D form. The star is where a group is joined. Phe(4-(2-(Boc)aminoethoxy)) = phenylalanine with 4-(2-(Boc-amino)ethoxy) on the ring, CC(C)(C)OC(=O)NCCOc1ccc(C[C@H](N[*:1])C(=O)[*:2])cc1; Phe(3,5-F2) = N[C@@H](Cc1cc(F)cc(F)c1)C(=O)O; 2Nal = N[C@@H](Cc1ccc2ccccc2c1)C(=O)O; AEF = NCCOc1ccc(C[C@H](N)C(=O)O)cc1; αMeY = C[C@](N)(Cc1ccc(O)cc1)C(=O)O; Cyclopropanecarbonyl = O=C(C1CC1)*; αMeF = C[C@](N)(Cc1ccccc1)C(=O)O; αMeE = C[C@](N)(CCC(=O)O)C(=O)O; Pen = CC(C)(S)[C@H](N)C(=O)O; αMeK = C[C@](N)(CCCCN)C(=O)O; αMeC = C[C@](N)(CS)C(=O)O; Ac6c = NC1(C(=O)O)CCCCC1; Thp = NC1(C(=O)O)CCOCC1; Abu = CC[C@H](N)C(=O)O; Aib = CC(C)(N)C(=O)O; Propionyl = CCC(=O)*; Butyryl = CCCC(=O)*; Propyl = CCC*
B1: Compound No. 56 (peptide)
peptide: Ac-[dR][Pen]QTWQ[Pen][AEF][2Nal][Thp]K(Ac)N[Thp]-NH2
modifications: disulfide 2-7
SMILES: CC(=O)NCCCC[C@H](NC(=O)C1(NC(=O)[C@H](Cc2ccc3ccccc3c2)NC(=O)[C@H](Cc2ccc(OCCN)cc2)NC(=O)[C@H]2NC(=O)[C@H](CCC(N)=O)NC(=O)[C@H](Cc3c[nH]c4ccccc34)NC(=O)[C@H]([C@@H](C)O)NC(=O)[C@H](CCC(N)=O)NC(=O)[C@@H](NC(=O)[C@@H](CCCNC(=N)N)NC(C)=O)C(C)(C)SSC2(C)C)CCOCC1)C(=O)N[C@@H](CC(N)=O)C(=O)NC1(C(N)=O)CCOCC1
B2: Compound No. 54 (peptide)
peptide: Ac-[dR][Pen]QTWQ[Pen][AEF][2Nal][Thp]K(Propionyl)NF-NH2
modifications: disulfide 2-7
SMILES: CCC(=O)NCCCC[C@H](NC(=O)C1(NC(=O)[C@H](Cc2ccc3ccccc3c2)NC(=O)[C@H](Cc2ccc(OCCN)cc2)NC(=O)[C@H]2NC(=O)[C@H](CCC(N)=O)NC(=O)[C@H](Cc3c[nH]c4ccccc34)NC(=O)[C@H]([C@@H](C)O)NC(=O)[C@H](CCC(N)=O)NC(=O)[C@@H](NC(=O)[C@@H](CCCNC(=N)N)NC(C)=O)C(C)(C)SSC2(C)C)CCOCC1)C(=O)N[C@@H](CC(N)=O)C(=O)N[C@@H](Cc1ccccc1)C(N)=O
B3: Compound No. 58 (peptide)
peptide: Ac-[dR][Pen]QTWQ[Pen][AEF][2Nal][Thp]K(Butyryl)NF-NH2
modifications: disulfide 2-7
SMILES: CCCC(=O)NCCCC[C@H](NC(=O)C1(NC(=O)[C@H](Cc2ccc3ccccc3c2)NC(=O)[C@H](Cc2ccc(OCCN)cc2)NC(=O)[C@H]2NC(=O)[C@H](CCC(N)=O)NC(=O)[C@H](Cc3c[nH]c4ccccc34)NC(=O)[C@H]([C@@H](C)O)NC(=O)[C@H](CCC(N)=O)NC(=O)[C@@H](NC(=O)[C@@H](CCCNC(=N)N)NC(C)=O)C(C)(C)SSC2(C)C)CCOCC1)C(=O)N[C@@H](CC(N)=O)C(=O)N[C@@H](Cc1ccccc1)C(N)=O
B4: Compound No. 52 (peptide)
peptide: Ac-[dR][Pen]QTWQ[Pen][AEF][2Nal][Thp]K(Butyryl)N[Thp]-NH2
modifications: disulfide 2-7
SMILES: CCCC(=O)NCCCC[C@H](NC(=O)C1(NC(=O)[C@H](Cc2ccc3ccccc3c2)NC(=O)[C@H](Cc2ccc(OCCN)cc2)NC(=O)[C@H]2NC(=O)[C@H](CCC(N)=O)NC(=O)[C@H](Cc3c[nH]c4ccccc34)NC(=O)[C@H]([C@@H](C)O)NC(=O)[C@H](CCC(N)=O)NC(=O)[C@@H](NC(=O)[C@@H](CCCNC(=N)N)NC(C)=O)C(C)(C)SSC2(C)C)CCOCC1)C(=O)N[C@@H](CC(N)=O)C(=O)NC1(C(N)=O)CCOCC1
B5: Compound No. 53 (peptide)
peptide: Ac-[dR][Pen]QTWQ[Pen][AEF][2Nal][Thp]K(Ac)NF-NH2
modifications: disulfide 2-7
SMILES: CC(=O)NCCCC[C@H](NC(=O)C1(NC(=O)[C@H](Cc2ccc3ccccc3c2)NC(=O)[C@H](Cc2ccc(OCCN)cc2)NC(=O)[C@H]2NC(=O)[C@H](CCC(N)=O)NC(=O)[C@H](Cc3c[nH]c4ccccc34)NC(=O)[C@H]([C@@H](C)O)NC(=O)[C@H](CCC(N)=O)NC(=O)[C@@H](NC(=O)[C@@H](CCCNC(=N)N)NC(C)=O)C(C)(C)SSC2(C)C)CCOCC1)C(=O)N[C@@H](CC(N)=O)C(=O)N[C@@H](Cc1ccccc1)C(N)=O
B6: Compound No. 51 (peptide)
peptide: Ac-[dR][Pen]QTWQ[Pen][AEF][2Nal][Thp]K(Cyclopropanecarbonyl)N[Thp]-NH2
modifications: disulfide 2-7
SMILES: CC(=O)N[C@H](CCCNC(=N)N)C(=O)N[C@@H]1C(=O)N[C@@H](CCC(N)=O)C(=O)N[C@@H]([C@@H](C)O)C(=O)N[C@@H](Cc2c[nH]c3ccccc23)C(=O)N[C@@H](CCC(N)=O)C(=O)N[C@H](C(=O)N[C@@H](Cc2ccc(OCCN)cc2)C(=O)N[C@@H](Cc2ccc3ccccc3c2)C(=O)NC2(C(=O)N[C@@H](CCCCNC(=O)C3CC3)C(=O)N[C@@H](CC(N)=O)C(=O)NC3(C(N)=O)CCOCC3)CCOCC2)C(C)(C)SSC1(C)C
B7: Compound No. 55 (peptide)
peptide: Ac-[dR][Pen]QTWQ[Pen][AEF][2Nal][Thp]K(Cyclopropanecarbonyl)NF-NH2
modifications: disulfide 2-7
SMILES: CC(=O)N[C@H](CCCNC(=N)N)C(=O)N[C@@H]1C(=O)N[C@@H](CCC(N)=O)C(=O)N[C@@H]([C@@H](C)O)C(=O)N[C@@H](Cc2c[nH]c3ccccc23)C(=O)N[C@@H](CCC(N)=O)C(=O)N[C@H](C(=O)N[C@@H](Cc2ccc(OCCN)cc2)C(=O)N[C@@H](Cc2ccc3ccccc3c2)C(=O)NC2(C(=O)N[C@@H](CCCCNC(=O)C3CC3)C(=O)N[C@@H](CC(N)=O)C(=O)N[C@@H](Cc3ccccc3)C(N)=O)CCOCC2)C(C)(C)SSC1(C)C
B8: Compound No. 57 (peptide)
peptide: Ac-[dR][Pen]QTWQ[Pen][AEF][2Nal][Thp]K(Propionyl)N[Thp]-NH2
modifications: disulfide 2-7
SMILES: CCC(=O)NCCCC[C@H](NC(=O)C1(NC(=O)[C@H](Cc2ccc3ccccc3c2)NC(=O)[C@H](Cc2ccc(OCCN)cc2)NC(=O)[C@H]2NC(=O)[C@H](CCC(N)=O)NC(=O)[C@H](Cc3c[nH]c4ccccc34)NC(=O)[C@H]([C@@H](C)O)NC(=O)[C@H](CCC(N)=O)NC(=O)[C@@H](NC(=O)[C@@H](CCCNC(=N)N)NC(C)=O)C(C)(C)SSC2(C)C)CCOCC1)C(=O)N[C@@H](CC(N)=O)C(=O)NC1(C(N)=O)CCOCC1

Target: T1, human IL-23R (interleukin-23 receptor) (human, UniProt Q5VWK5 24-629)
T1 sequence (looked up): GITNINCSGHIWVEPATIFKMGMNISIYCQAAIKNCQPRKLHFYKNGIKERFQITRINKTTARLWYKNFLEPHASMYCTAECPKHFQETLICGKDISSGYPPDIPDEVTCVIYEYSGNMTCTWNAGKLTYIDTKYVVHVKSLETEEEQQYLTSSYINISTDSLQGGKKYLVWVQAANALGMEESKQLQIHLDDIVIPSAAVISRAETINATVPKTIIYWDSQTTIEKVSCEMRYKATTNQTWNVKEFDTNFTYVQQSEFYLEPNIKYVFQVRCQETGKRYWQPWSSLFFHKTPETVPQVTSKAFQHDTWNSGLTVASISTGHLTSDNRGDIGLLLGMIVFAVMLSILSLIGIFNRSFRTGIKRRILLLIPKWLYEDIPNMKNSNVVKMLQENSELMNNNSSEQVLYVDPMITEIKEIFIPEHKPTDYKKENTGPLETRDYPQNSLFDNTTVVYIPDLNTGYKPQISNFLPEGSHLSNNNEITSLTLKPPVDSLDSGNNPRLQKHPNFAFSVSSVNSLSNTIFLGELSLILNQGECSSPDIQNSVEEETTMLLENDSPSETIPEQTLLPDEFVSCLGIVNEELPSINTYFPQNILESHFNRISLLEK
Test: cell-based or functional assay

Binder | PBMC pSTAT3 IC50 (nM)
[dR][Abu]QTWQC[Phe(4-(2-(Boc)aminoethoxy))][2Nal][Thp]EN[Thp]-NH2 (thioether 2-7) [Compound No. 47] | 5.3 nM
B1 | 4.9 nM
B2 | 47 nM
B3 | 35 nM
Ac-[dR][Abu]QTWQC[AEF][2Nal][Ac6c][αMeE]NF[Aib][αMeK]-NH2 (thioether 2-7) [Compound No. 45] | 17 nM
Ac-[dR][Abu]QTWQC[AEF][2Nal][Thp][αMeE]N[Phe(3,5-F2)]-NH2 (thioether 2-7) [Compound No. 46] | 48 nM
B4 | 16 nM
B5 | 29 nM
B6 | 27 nM
B7 | 25 nM
B8 | 18 nM
Ac-[dR][Abu]QTWQC[AEF][2Nal][Thp][Aib]NF-NH2 (thioether 2-7) [Compound No. 49] | 18 nM
Ac-[dR][Abu]QTWQC[AEF][2Nal][Thp][Ac6c]N[αMeF]-NH2 (thioether 2-7) [Compound No. 50] | 14 nM
Ac-[dR][Abu]QTWQC[AEF][2Nal][Thp][αMeE]N[αMeY]-NH2 (thioether 2-7) [Compound No. 44] | 9.3 nM
Ac-[dR][Abu]QTWQC[AEF][2Nal][Thp][αMeE]NF[Aib][αMeK]-NH2 (thioether 2-7) [Compound No. 43] | 8.2 nM
Propyl-[dR][Abu]QTWQ[αMeC][AEF][2Nal][Thp]ENF-NH2 (thioether 2-7) [Compound No. 48] | 7.2 nM
